Assay [1] addresses second domain of Cas9 protein (half domain comprising the C-terminus, beginning with the QG amino acids of the SGQG linker; NLS and HA tag at its C-terminus) (UniProt Q99ZW2). Briefly: cell-based or functional assay.
Assay [2] addresses second domain of Cas9 protein delivered by adeno-associated virus vector (splicing acceptor linked t (UniProt Q99ZW2)). Briefly: cell-based or functional assay.

Here are results for 2 substances from patent publication US20170349905A1.

Chain of second domain of Cas9 protein (half domain comprising the C-terminus, beginning with the QG amino acids of the SGQG linker; NLS and HA tag at its C-terminus) (Q99ZW2 716-1368): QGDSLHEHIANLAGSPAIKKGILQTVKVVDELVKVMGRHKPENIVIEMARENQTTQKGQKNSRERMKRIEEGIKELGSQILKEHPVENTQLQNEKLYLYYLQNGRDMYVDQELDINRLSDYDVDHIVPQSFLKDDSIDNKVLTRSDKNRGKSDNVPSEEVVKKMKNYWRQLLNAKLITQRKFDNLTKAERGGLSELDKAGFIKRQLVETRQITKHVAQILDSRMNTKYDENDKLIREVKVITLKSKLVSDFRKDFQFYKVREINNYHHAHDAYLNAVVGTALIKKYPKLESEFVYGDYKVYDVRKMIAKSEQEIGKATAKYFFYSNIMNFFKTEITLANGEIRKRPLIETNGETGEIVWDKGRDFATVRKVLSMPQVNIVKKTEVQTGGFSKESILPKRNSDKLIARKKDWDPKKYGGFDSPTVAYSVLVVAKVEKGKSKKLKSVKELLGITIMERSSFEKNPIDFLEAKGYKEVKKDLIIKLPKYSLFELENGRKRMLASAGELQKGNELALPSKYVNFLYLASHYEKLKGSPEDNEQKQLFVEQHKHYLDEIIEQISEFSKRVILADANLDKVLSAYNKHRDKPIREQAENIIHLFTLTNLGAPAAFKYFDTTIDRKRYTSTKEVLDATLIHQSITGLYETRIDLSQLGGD
Chain of second domain of Cas9 protein delivered by adeno-associated virus vector (splicing acceptor linked t (Q99ZW2 716-1368 limits assumed): as the sequence (Q99ZW2 716-1368) above

In assay [1], “first domain of Cas9 protein (half domain comprising the N-terminus, ending in the SG amino acids of the SGQG linker; HA tag and NLS at its N-terminus) (from UniProt Q99ZW2 1-715) (enzyme)” had an Indel frequency in the CCR5 gene (next-generation sequencing) of 20.3%, an Indel frequency in the DMD gene (next-generation sequencing) of 23.8% and an Indel frequency in the HPRT gene (next-generation sequencing) of 27.1%.

“first domain of Cas9 protein delivered by adeno-associated virus vector (splicing donor linked to the C-terminal region) (from UniProt Q99ZW2 1-715) (enzyme)” gave a target sequence cleavage rate (DMD exon 51) in Hela cells co-infected with AAV, next-generation sequencing in assay [2] of 5%.
